This note sets out measurements from paper PMC3526297.

The target of this assay is GST-Rev3 (S. cerevisiae) (UniProt P14284). In words: affinity co-purification of the polymerase from yeast.
UniProt P14284, sequence (P14284 whole entry): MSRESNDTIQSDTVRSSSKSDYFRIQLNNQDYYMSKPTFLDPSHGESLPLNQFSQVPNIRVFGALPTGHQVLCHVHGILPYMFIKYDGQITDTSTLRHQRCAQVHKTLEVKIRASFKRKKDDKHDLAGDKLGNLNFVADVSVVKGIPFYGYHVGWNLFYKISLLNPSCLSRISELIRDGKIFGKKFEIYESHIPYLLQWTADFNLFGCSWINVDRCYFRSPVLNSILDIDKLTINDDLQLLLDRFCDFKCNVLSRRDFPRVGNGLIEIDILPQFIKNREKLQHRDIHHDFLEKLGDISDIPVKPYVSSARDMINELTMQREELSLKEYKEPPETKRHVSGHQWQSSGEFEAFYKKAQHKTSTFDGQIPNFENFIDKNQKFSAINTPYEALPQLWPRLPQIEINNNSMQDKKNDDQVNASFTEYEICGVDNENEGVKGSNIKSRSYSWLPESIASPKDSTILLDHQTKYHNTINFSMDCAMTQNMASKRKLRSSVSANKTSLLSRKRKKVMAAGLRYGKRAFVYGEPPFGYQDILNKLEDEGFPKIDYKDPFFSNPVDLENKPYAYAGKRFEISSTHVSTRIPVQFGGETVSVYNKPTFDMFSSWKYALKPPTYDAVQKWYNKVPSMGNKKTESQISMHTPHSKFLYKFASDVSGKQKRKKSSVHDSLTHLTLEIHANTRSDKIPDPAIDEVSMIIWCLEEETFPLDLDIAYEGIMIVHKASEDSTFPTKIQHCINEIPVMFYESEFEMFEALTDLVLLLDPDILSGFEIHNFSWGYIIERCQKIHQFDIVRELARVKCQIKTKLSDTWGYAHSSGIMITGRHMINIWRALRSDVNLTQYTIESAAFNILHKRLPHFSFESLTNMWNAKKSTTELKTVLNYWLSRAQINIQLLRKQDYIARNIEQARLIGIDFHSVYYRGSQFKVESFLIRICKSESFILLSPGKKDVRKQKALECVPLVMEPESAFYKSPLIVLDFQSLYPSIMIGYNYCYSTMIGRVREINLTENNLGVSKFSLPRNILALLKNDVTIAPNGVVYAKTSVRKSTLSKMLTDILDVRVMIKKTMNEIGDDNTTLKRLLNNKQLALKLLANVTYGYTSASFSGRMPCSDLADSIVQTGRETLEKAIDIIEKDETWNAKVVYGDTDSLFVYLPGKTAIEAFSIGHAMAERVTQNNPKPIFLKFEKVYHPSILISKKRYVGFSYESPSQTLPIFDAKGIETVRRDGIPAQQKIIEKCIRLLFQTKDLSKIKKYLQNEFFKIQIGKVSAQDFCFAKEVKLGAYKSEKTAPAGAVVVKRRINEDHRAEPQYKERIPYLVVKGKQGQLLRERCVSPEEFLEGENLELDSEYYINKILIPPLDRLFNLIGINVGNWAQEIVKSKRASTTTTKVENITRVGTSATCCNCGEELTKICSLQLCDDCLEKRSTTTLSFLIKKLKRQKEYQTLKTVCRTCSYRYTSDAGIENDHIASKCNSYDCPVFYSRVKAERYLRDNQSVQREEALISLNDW

As to “Pol32 with an N-terminal His7 tag (from UniProt P47110 1-350) (natural protein)”, the stoichiometry of the complex after Ni-chelate chromatography (percent) amounted to 100%.
